Laboratory results published in paper PMC11976907 (Nature Communications, 2025).

Biological target: T1, human TEX10 (43-929), His6-MBP fusion (human, UniProt Q9NXF1 43-929)
T1 sequence (looked up): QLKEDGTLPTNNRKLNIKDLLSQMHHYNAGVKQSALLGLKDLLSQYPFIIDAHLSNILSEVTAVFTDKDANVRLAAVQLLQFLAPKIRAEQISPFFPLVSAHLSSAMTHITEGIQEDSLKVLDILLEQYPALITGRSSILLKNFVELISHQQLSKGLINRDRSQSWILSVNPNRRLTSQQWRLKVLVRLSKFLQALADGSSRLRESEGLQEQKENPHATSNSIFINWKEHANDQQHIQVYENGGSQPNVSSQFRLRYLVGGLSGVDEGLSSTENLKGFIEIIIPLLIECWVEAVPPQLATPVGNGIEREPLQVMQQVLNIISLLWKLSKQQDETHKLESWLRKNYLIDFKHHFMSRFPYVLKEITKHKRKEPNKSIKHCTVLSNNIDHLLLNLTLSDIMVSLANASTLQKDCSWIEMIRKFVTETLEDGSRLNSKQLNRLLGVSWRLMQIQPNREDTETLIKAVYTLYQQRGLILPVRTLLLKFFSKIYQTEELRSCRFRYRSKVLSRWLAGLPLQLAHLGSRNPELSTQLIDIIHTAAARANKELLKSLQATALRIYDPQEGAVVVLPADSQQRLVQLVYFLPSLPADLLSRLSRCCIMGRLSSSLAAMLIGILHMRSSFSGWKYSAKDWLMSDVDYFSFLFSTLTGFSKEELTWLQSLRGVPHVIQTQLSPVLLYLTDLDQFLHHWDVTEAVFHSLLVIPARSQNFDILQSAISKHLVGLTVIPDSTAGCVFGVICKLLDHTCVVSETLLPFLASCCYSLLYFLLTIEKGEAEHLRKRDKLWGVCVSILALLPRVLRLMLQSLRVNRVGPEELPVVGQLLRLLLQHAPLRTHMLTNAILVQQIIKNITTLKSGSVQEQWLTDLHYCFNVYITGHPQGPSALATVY
Experiment: cryo-EM structure

binding result: binds
B1: human PELP1 (residues 1-642, Rix1 domain) (domain or fragment)
chain: not shown
